Assay [1] concerns the target polypeptide 209 (hepatitis E virus). The assay is described as follows: ELISA with 8C11.
Assay [2] addresses 7-peptide ALWGPTS. Description: phage display panning on coated MAb; 2 clones.
In assay [3] the target is T1, C149-mut-8H3.
T1 chain: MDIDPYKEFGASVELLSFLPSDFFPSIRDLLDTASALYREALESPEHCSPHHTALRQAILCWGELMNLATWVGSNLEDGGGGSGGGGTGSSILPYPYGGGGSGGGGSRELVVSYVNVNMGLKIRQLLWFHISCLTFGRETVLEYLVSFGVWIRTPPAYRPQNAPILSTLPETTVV
The assay is described as follows: dot blot of E. coli lysate supernatant.

Assay [4] deals with 7-peptide SPPNVRT. Description: phage display panning on coated MAb; 1 clone.
Assay [5] deals with 7-peptide STLFMNF. The assay is described as follows: phage display panning on coated MAb; 1 clone.
Assay [6] has as its target 7-peptide SAHVLST. Description: phage display panning on coated MAb; 1 clone.
The target of assay [7] is 7-peptide SPKMPIL. Description: phage display panning on coated MAb; 1 clone.
Assay [8] deals with 7-peptide HPTLLRI. Description: phage display panning on coated MAb; 5 clones.
For assay [9], the target named is C149-mut-8C11. The assay is described as follows: dot blot of E. coli lysate supernatant.
Assay [10] concerns the target 7-peptide ITNDFKQ. Description: phage display panning on coated MAb; 1 clone.
Assay [11] has as its target 7-peptide PVQMPWL. The assay is described as follows: phage display panning on coated MAb; 1 clone.
For assay [12], the target named is 7-peptide SLPTLTL. Description: phage display panning on coated MAb; 1 clone.
Assay [13] has as its target 7-peptide YQDSAKT. Description: phage display panning on coated MAb; 2 clones.
For assay [14], the target named is 7-peptide VSWNSLV. The assay is described as follows: phage display panning on coated MAb; 1 clone.
In assay [15] the target is 7-peptide INQKPTL. Description: phage display panning on coated MAb; 1 clone.
Assay [16] deals with 7-peptide SSMFFYR. The assay is described as follows: phage display panning on coated MAb; 1 clone.
Assay [17] deals with 7-peptide SSYEWFI. The assay is described as follows: phage display panning on coated MAb; 1 clone.
In assay [18] the target is 7-peptide SLVTGIL. The assay is described as follows: phage display panning on coated MAb; 1 clone.
The target of assay [19] is 7-peptide SAPSSKN. Description: phage display panning on coated MAb; 1 clone.
In assay [20] the target is 7-peptide NHWASPR. Description: phage display panning on coated MAb; 1 clone.

This is an account of results in US20060233822A1 (YANG SHENG TANG, published 2006).

B1: monoclonal antibody 8H3 (antibody, V domains shown)
VH: QVQLKESGPGLVAPSQSLSITCTVSGFSLIGYGVNWVRQPPEKGLEWLGMIWGDGSTDYNSALKSRLSITKDNSKSQVFLKMNSLQTDDTARYYCAMGVRPDPFDYWGQGTLVTVSA
VL: NIMMTQSPSSLAVSAGEKVTMSCKSSQSVLYSSNQKNYLAWYQQKPGQSPKLLIYWASARESGVPDRFTGSGSGTDFTLTINSVQTEDLAVYYCHQYLSSYTFGGGTKLEIKR
notes: also called MAb 8H3; HRP-8H3
In the case of B1, in assay [1], the “8C11 increases 8H3's reactivity” value is 3 fold. Further, the binding result in [2], in assay [3], in assay [4], in [5], in [6] and in [7] was “binds” in each case.

B2: monoclonal antibody 8C11 (antibody, V domains shown)
VH: QVTLKESGPGILQPSQTLSLTCSFSGFSLSTSGMGVGWIRQPSGKGLEWLAHIWWDDVKRYSPALKSRLTISKDTSSSQLFLKIASVDTADTATYYCARIKSVITTGDYALDYWGQGTSVAVSS
VL: DIQMTQSPASLSVSVGETVTITCRASEIIYSNLAWYQQKQGKSPQLLVYSATNLAEGVPSRFSGSGSGTQYSLKINSLQSEDFGSYYCQHFWGNPWTFGGGTKLEIKR
notes: also called MAb 8C11; HRP-8C11
On to B2, for which the binding result in [8], in assay [9], in assay [10], in assay [11] and in [12] was “binds” in each case.

B3: monoclonal antibody 13D8 (antibody, V domains shown)
VH: DVQLQESGPGLVKPSQSLSLSCSVTGYSITSGYYWNWIRQFPGNKLEWMGYIGYDGSNKYNPSLKNRISITRDTSKNQFFLKLTSVTTGDTATYYCVRDVKYYFDYWGQGTTVTVSS
VL: DIQMTQSPASLSVSVGETVTITCRASENIYSNLAWYQQKQGKSPQLLVYAATNLADGVPSRFSGSGSGTQYSLKISSLQSEDFGSYYCQHFWGSPWTFGGGTKLEIKR
notes: also called MAb 13D8; HRP-13D8
On to B3, for which the binding result in assay [13], in assay [14], in [15], in assay [16], in assay [17] and in assay [18] was “binds” throughout. The binding result in assay [19] and in [20] was “binds” in each case.
